Assay results: the DeepSol protein solubility set

assay: soluble on expression in E. coli; label from the status in PepcDB or PDB records

Row | Sequence | soluble on expression in E. coli
1 | MGSDKIHHHHHHMELKLERHPANPILEPSPYFLWESRFVFNPAVVYDGELFHLLYRAQGEDMVSRIGYAVSTDGIHFNKFEKPVFAPKSDDELYGVEDPRITKIGDEYYMVYTAYSPRGVRIAMASTKNFITWKRYGVVIPEVDNKDAALFPEKINGKYVMFHRIPPDMWLAFSDDLVHWDNFVKIASPRPGMWDDLKIGVGAPPIKTEYGWLVLYHGVQNTGTSRPIYRLGFMLLDLEDPTKVIKRSKEPILEPEEDWEKFGGVPNVVFSDAMIEYNGYYYVYYGAADNCIALATIPVEKVMKWCRE | not soluble
2 | MGSDKIHHHHHHMELLNSMSKSLDQLLSLVNHSEIASIKATLSKIIEVIHNPESSVMDLKNLIEIDPPLAANVLRRANSAFYGMRRGIHSIMDAIIFIGFDAVKELTLNQKFFELFQKNGVEIHGYSRRVLWEHSIGVALCGKLIYRREFRKNGGDMYTAGLIHDIGIIVEDQFLHAELLSILADKEEHERDLHSAEADVLGYCHEDIGKRLAEDWNFPEELCLVLGEAERPETSEGPRLLLADTLYVANCACQLRKVGFSELGRLDRPAYEDCLNRLRIKERALDFIMDEVNAQIALMKNDGWF | not soluble
3 | MGSDKIHHHHHHMELNIPLVLQNKTPIYLQIYEYMKREISHGSLCAGTRLPSHRNLAMQLNVSRITVESAYQQLLAEGYVESKPKRGIFVAEVDIDVIQKKQQIVSNSANNKEKEQYDYDCSQGLIDQKAFPITNWKRALHETLFQYENELFAKEDPQGELVLREHISKYLYHARGVHSSPDQIIIGAGTQPLLWLLLQLLGSKKEYGIENPGFHRIPAMIQSSGLPVHPIPLDDKGIHISALRESGSNVAYVTPSHQFPLGIIMPLSRRLELLKWANDCKGYIVEDDYDGEFRYIGKPIPSLQGLDSNERVIYMGTFSKSFLPSLRMGYIVLPPHLLKTYKELGGMYKQTVSTMQQLTFATFIQSGDWERHINRSRTLYKRKHISLIKSITNEMGNNVHILGEQSGLHIVLHVHNGMNEQELIHAAAKQRIKLYPLSTYDSVHNVREESYVLLGFGSIPENRIETVVQLLKKAWFPK | not soluble
4 | MGSDKIHHHHHHMEMIMRPDRSLFIVEDDATFAKTLKRSFEKRDYDVVVCHGREDLLGALETAVPAYAVVDLKLGARGSGLECVKLLSARDTSMRIVVLTGFASIATAVEAIKLGACHYLAKPANTDDIEAAFGRAEGDVSVSLSSRPTSIKNLEWERIHETLVETGFNISETARRLGLHRRTLARKLEKRVVR | not soluble
5 | MGSDKIHHHHHHMEMLEEHRCFEGWQQRWRHDSSTLNCPMTFSIFLPPPRDHTPPPVLYWLSGLTCNDENFTTKAGAQRVAAELGIVLVMPDTSPRGEKVANDDGYDLGQGAGFYLNATQPPWATHYRMYDYLRDELPALVQSQFNVSDRCAISGHSMGGHGALIMALKNPGKYTSVSAFAPIVNPCSVPWGIKAFSSYLGEDKNAWLEWDSCALMYASNAQDAIPTLIDQGDNDQFLADQLQPAVLAEAARQKAWPMTLRIQPGYDHSYYFIASFIEDHLRFHAQYLLK | not soluble
6 | MGSDKIHHHHHHMENIVELINVTKTFKDFSINKMDLQVKKGFVTGFIGANGAGKSTTIKMMMNLLKPDDGEVKLFGMDYTTHEKAIKERIGFVYDGNVFFEGLNLKDIKHIVGPAYKRWDDTLFYQYVDKFELPLNKAIKTFSKGMQMKASLAIALSHHAELIIMDEPTAGLDPIFRRELLDILQELMIDNDRTIFFSTHITTDLDRIADYIAFMQGGNLVFNQSIHDIDENYALVKGGLDLLDKDTEKAFVHVRRASTGFEALTNNLSAVKNIFGDTVIIERATLEDIMYYMKGGVHYV | not soluble
7 | MGSDKIHHHHHHMEQNRFKKETKTCSASWPRAPQSTLCATDRLELTYDVYTSAERQRRSRTATRLNLVFLHGSGMSKVVWEYYLPRLVAADAEGNYAIDKVLLIDQVNHGDSAVRNRGRLGTNFNWIDGARDVLKIATCELGSIDSHPALNVVIGHSMGGFQALACDVLQPNLFHLLILIEPVVITRKAIGAGRPGLPPDSPQIPENLYNSLRLKTCDHFANESEYVKYMRNGSFFTNAHSQILQNIIDFERTKASGDDEDGGPVRTKMEQAQNLLCYMNMQTFAPFLISNVKFVRKRTIHIVGARSNWCPPQNQLFLQKTLQNYHLDVIPGGSHLVNVEAPDLVIERINHHIHEFVLTSPLQSSHIPQLTLEERAVMFDRAFDSFKNEALVKTTKQKL | not soluble
8 | MGSDKIHHHHHHMESAIDKHLVCPRTLSRRVADDYQPPFPMYVARAAEDLSQVVMGYFGVQYRGADQRSVALAALRRIVADFDAPDGPGNHDLTQHTDNQGYDNLIAVGYWRDPDAYARWIASPAVAEWWASDARLADGIGYFREIVAPRAEQFETLYAFTNDFPGVGSIMDGVSGEIEEHGYWGSMRDRFPISQTDWMHADGELRIVAGDPARGGRVVVLAHDNIALIRSGQDWRAAEDDERRLYLDEIEPTLRSGMDFLRDNGVDVGCYSNRYVRSIDLDGNLLDESYNIGHWRSLDRLERWAESHPTHLRIFVTFFRVVTGLSKLRLYHEVSVFDAKHQVYEYVNCHPTTGMMRDAVAR | not soluble
9 | MGSDKIHHHHHHMETIKAIHTRHSVRAFKDDPIEPQLLTMIVTDAQQTPSWGNSQPWQVYIATGHALTNIKQHYATAAEQGIAEDADLAKVHRGDFSAFASQNMGHWVGTFRPVIDSDPTTYWDSRANLYRAPAIAYLVLDANPNSWSIYDLGAFSQTLMLAATARGVQSVPSYELVKYPAIVRNALGMPANKVVAMGIALGYEKPEKPLNQFRTDRVATPQVLHIIN | not soluble
10 | MGSDKIHHHHHHMEVAMEKIYYPRTIDSYLLEWKNERAHKPLLLRGARQVGKSSAVRQLGKTFKYFMEVNFERDKEIISVFTGNLKPKEITSRLAAFYGIPVVPGETLLFLDEIQACTPAIHSLWFFYEDYPELHVVAAGSLLEFALKKMAFFGVGRVRSLFMYPMSFDEFLAATGHAGWIEAKRNASPAEPLFEALHGKLVESFRNYLMVGGMPESVQNWVETEDYLKCQQVQDDIMLAYEDDFSKYEEKADPMLLRQTLRSVAQQIGGKFVYSNVQGNYRSEKIKSALELLKDAGLVRPAVHTAANGIPLGAEINEKFVKYIFLDSGLLLRLLGLENTGGTSEMSRLVLVGAASDLVNKGHITEMVAGLELLKYNTPVQRHDLYYWQNLSRGAQAEVDYVIVKDMRVVPLEVKAGTTGSMKSMYQFMEEKHLTYGIRTSLENFGKLEKADIIPLYALSNLYK | not soluble
11 | MGSDKIHHHHHHMEVDDVWDDTELIKMYDESLQEISKNETSAKITSRKFKGEDGKMYTWKVGGKCMAPYEENGEVTDYPATIDTIGGADNLEVGVTFIYYGGQAVVQMKDLWLNEEAIADAVKAENDLQKTKKTSTVNSVAHSNSKSTSSAPNTSMPFPSFAPPVPPNIIAMAPVNQKEAMNSMLMSWYMSGYHTGYYQALADQKNVQN | not soluble
12 | MGSDKIHHHHHHMEVVGRSRAKAIIETHLNDSLVYFSDHVRILKCNPYCTGVTYLKEHGVYQWIFQVNDPRENPITAVFFVTQNEEHLDSSRTVPAGPVSEEESFPDSAVSGRCIQWVNAPQVPDVPLKEKNTFVGQANTRICLYPLEDRRTEVHFETDITLDFELSFPLNLMPEGILKFMTEAVMSKIMQQATESMLCQVQSDLCCCTTAELDASGGKV | not soluble
13 | MGSDKIHHHHHHMEYVNIKLPYDKKQITAKIYKRNLAGILVSKSENYKNSLSEKELVEKSLDNPIASPKLEELVKGKKNIVLISSDHTRPVPSKIITPILLRRIRSVEPNANIIILVATGFHRPSTHEELVDKYGEEIVKRENIVMHVSTDDSAMVQIGTLPSGGPCIINKIAAEADLLIAEGFIESHFFAGFSGGRKSVLPGIASYKTIMANHCGEFINSNKARTGNIKCNPIHEDMVYAARTAGLKFILNVVLDGNKKIIGSFAGDVEKAHETGCDFVKDLARVKKVPCDIAVSTNGGYPLDQNIYQAVKGMTAAEATNKENGVIIMVAGCRDGHGGEGFYKNLANVKTPEEFLEKAIHTERQKTIPDQWTSQILARILSKHHVIMVSDLVDQKLICGMHMELVSNFEEALERAYKIEGKDAKVTVIPDGLSVIVE | not soluble
14 | MGSDKIHHHHHHMFGLPGKKSSAVLGVDVSSSSVKLLELSKHGDRYKVESYAVEPLPANAVVEKNITDVEAVGEVLKRVASKSRTSVKQVAVAVSGSAVITKVIQMDGGLNEFEMEDQIALEADQYIPYPLDEVAIDFEVQGPSESNPDQVDVLLAACRKENVDIREDALEIAGLTTKIVDVEAYALERAYSLIEPQLDSQGEELVVAIVDIGATMTTLSVLAEGKTVYTREQIFGGKQLTEEIQRRYGLSLEEAGLAKKQGGLPDDYNEEVLTPFREAVVQQVARALQFFFGASQYNAVDYVVLAGGTASIQGLTEMVEEKTGTPTLVANPFANMAVGSRVNASALSNDAPSLMIACGLAMRSFD | not soluble
15 | MGSDKIHHHHHHMFHPIEEALDALKKGEVIIVVDDEDRENEGDFVALAEHATPEVINFMATHGRGLICTPLSEEIADRLDLHPMVEHNTDSHHTAFTVSIDHRETKTGISAQERSFTVQALLDSKSVPSDFQRPGHIFPLIAKKGGVLKRAGHTEAAVDLAEACGSPGAGVICEIMNEDGTMARVPELIEIAKKHQLKMITIKDLIQYRYNLTTLVEREVDITLPTDFGTFKVYGYTNEVDGKEHVAFVMGDVPFGEEPVLVRVHSECLTGDVFGSHRCDCGPQLHAALNQIAAEGRGVLLYLRQEGRGIGLINKLKAYKLQEQGYDTVEANEALGFLPDLRNYGIGAQILRDLGVRNMKLLTNNPRKIAGLEGYGLSISERVPLQMEAKEHNKKYLQTKMNKLGHLLHF | not soluble
16 | MGSDKIHHHHHHMFKIDRLRFGTAGIPISTPKPSTIAGIERVRELGLDAMELEFVRGINIKPELAKKIKYVAEKNDIVLTAHAPYYINLNAKEKEKVEASKRRIIQSAERLYEAGGWSVVFHAGYYLKQPKESVYQKILSALKEIQKELMDKGIKVWLRPELTGKPTQFGDLKELVKLSQELELVLPAIDFAHAHARNKGKCNTEEEWREMLALIENELGREALDNMHIHISGIEYGEKGEKRHLNLEESDLKWEDLLKVLKEFRVKGVIISESPNIEGDAILMKKKWEELKI | not soluble
17 | MGSDKIHHHHHHMFKTIHPLSVARHGKLRLKPVSDYRFAAQEAVIGLVGAEIHKAIHAFPIAFLRSAHAGGTSCQMVGLLSVTPGQNLLVSPDGRWLGDYIPAALRAYPFVLARSQEDADTRLPCLDEDCGLLSESEGQPLFSEDGQLSDFSRRIIDFLTATERNREATQKGVDVLEKAQLFTPWSLQVVIQKQTKAIEGFHVIDETKLNQLDDETWLALRRAGVLPLVYGHLLSLNRTDLLGQLSGLQAQLAQQLTARPKLDDMLDFGDESILQF | not soluble
18 | MGSDKIHHHHHHMFNNHEIDTILSTLRMEADPSLHPLFEQFEKFYEEKLWFQLSESLTKFFDDAKSTPLRLRLYDNFVSKFYDKINQLSVVKYLLASLKDSKDFDESLKYLDDLKAQFQELDSKKQRNNGSKDHGDGILLIDSEIARTYLLKNDLVKARDLLDDLEKTLDKKDSIPLRITNSFYSTNSQYFKFKNDFNSFYYTSLLYLSTLEPSTSITLAERQQLAYDLSISALLGDKIYNFGELLHHPIMETIVNDSNYDWLFQLLNALTVGDFDKFDSLIKVQISKIPILAQHESFLRQKICLMTLIETVFVKNIRMLSFEDISKATHLPKDNVEHLVMRAISLGLLKGSIDQVNELVTISWVQPRIISGDQITKMKDRLVEWNDQVEKLGKKMEARGQSIWV | not soluble
